Source: US20240238439A1 (HUMMINGBIRD BIOSCIENCE PTE, published 2024)

How the values were obtained:
Assay in all cases: SPR (Biacore T200), His-captured receptor on CM5 chip, ADC as analyte
[1] = biological target: T1, His-tagged recombinant human FcγRIA (human, UniProt P12314 16-288, limits assumed)
T1 construct: Captured on a CM5 chip by the Biacore HIS capture kit; also called human FCγRIA (CD64); not shown: His tag
Method: (§1) ADCs described in Example 2 were analysed for their ability to bind to human Fcγ receptors by surface plasmon resonance using Biacore.
(§2) Briefly, a Biacore HIS capture kit (Cytivia, Cat. #28995056) was employed to immobilize His-tagged recombinant human Fcγ receptor ligand (FcγRIA, FcγRIIA or FcγRIIIA) onto the surface of a CM5 sensor chip. […] Data capture and analysis were preformed using Biacore T200 according to manufacturer's recommendations for analyzing high-affinity antigen-antibody kinetics. Responses from all steps were reference cell-subtracted, and zero concentration-corrected to normalize for systematic disturbances. The resulting association and dissociation curves were fitted with 1:1 global fitting to obtain values for association rate (ka), dissociation rate (kd), and the equilibrium dissociation constant (KD).

[2] = biological target: T2, His-tagged recombinant human FcγRIIA (human, UniProt P12318 34-217, limits assumed)
T2 construct: Captured on a CM5 chip by the Biacore HIS capture kit; also called human FCγRIIA (CD32a); not shown: His tag
T2 sequence (looked up): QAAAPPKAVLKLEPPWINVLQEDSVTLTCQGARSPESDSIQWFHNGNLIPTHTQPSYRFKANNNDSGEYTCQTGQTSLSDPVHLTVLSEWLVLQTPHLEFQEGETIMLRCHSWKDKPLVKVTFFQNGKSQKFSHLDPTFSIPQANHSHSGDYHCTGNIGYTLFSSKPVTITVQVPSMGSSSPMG
Method: as §1, §2

[3] = biological target: T3, His-tagged recombinant human FcγRIIIA (human, UniProt P08637 17-208)
T3 construct: Captured on a CM5 chip by the Biacore HIS capture kit; also called human FCγRIIIA (CD16a); not shown: His tag
Method: as §1, §2

Measured: binding result

T3 sequence (P08637 17-208 limits assumed): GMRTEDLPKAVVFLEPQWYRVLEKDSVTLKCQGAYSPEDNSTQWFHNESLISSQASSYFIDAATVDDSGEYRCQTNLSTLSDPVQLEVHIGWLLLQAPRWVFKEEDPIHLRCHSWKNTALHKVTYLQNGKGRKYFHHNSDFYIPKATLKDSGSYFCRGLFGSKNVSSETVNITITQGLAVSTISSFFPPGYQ
T1 sequence (P12314 16-288 limits assumed): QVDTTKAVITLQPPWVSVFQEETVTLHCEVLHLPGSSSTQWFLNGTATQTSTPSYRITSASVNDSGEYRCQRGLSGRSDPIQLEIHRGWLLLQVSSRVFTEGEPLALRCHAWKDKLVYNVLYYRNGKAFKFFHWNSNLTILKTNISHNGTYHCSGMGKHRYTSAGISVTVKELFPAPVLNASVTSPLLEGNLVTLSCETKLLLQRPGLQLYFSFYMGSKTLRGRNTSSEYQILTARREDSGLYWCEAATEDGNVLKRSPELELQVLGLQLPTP

B1: 501c.S8D4 (antibody, human IgG1, kappa, L234A L235A)
heavy: not shown
light: DIQMTQSPSSVSASVGDRVTITCKASQIVGSNVAWYQQKPGKAPEPLIYSASYLYSGVPSRFSGSGSGTDFTLTISSLQPEDFATYYCQQYSSHPLTFGQGTKLEIKRTVAAPSVFIFPPSDEQLKSGTASVVCLLNNFYPREAKVQWKVDNALQSGNSQESVTEQDSKDSTYSLSSTLTLSKADYEKHKVYACEVTHQGLSSPVTKSFNRGEC
modifications: SYNtecan E (HydraSpace-PEG2-HydraSpace-Val-Ala-PABC linker, exatecan payload) conjugated at the 6-azido-GalNAc residue of the N-glycan of N297 (EU numbering); drug-to-antibody ratio 4
no binding: [1] | [2] | [3]

B2: 501b.S8D4 (antibody, human IgG1, kappa, L234A L235A)
heavy: QVQLQESGPGLVKPSQTLSLTCTVSGYSITSGYSWHWIRQHPGKGLEWIGSIRYSGGTDYNPSLKSLVTISADTSKNQFSLKLSSVTAADTAVYYCARMTTAPWYPFDYWGQGTTVTVSSASTKGPSVFPLAPSSKSTSGGTAALGCLVKDYFPEPVTVSWNSGALTSGVHTFPAVLQSSGLYSLSSVVTVPSSSLGTQTYICNVNHKPSNTKVDKKVEPKSCDKTHTCPPCPAPEAAGGPSVFLFPPKPKDTLYITREPEVTCVVVDVSHEDPEVKFNWYVDGVEVHNAKTKPREEQYNSTYRVVSVLTVLHQDWLNGKEYKCKVSNKALPAPIEKTISKAKGQPREPQVYTLPPSRDELTKNQVSLTCLVKGFYPSDIAVEWESNGQPENNYKTTPPVLDSDGSFFLYSKLTVDKSRWQQGNVFSCSVMHEALHNHYTQKSLSLSPGK
light: B1 light
modifications: SYNtecan E (HydraSpace-PEG2-HydraSpace-Val-Ala-PABC linker, exatecan payload) conjugated at the 6-azido-GalNAc residue of the N-glycan of N297 (EU numbering); drug-to-antibody ratio 4
no binding: [1] | [2] | [3]
